These results are taken from patent publication US5558865.

In assay [1] the target is peptide of amino acids 312-326 of HIV-1MN gp120 (HIV-1 strain MN). The experiment in a line: peptide ELISA, 500 ng MIgG.
Assay [2] addresses peptide of amino acids 322-336 of HIV-1MN gp120 (HIV-1 strain MN). The experiment in a line: peptide ELISA, 500 ng MIgG. Background: In an ELISA, binding on a coated surface is turned into a signal by an enzyme label.
The target in assay [3] is peptide of amino acids 302-316 of HIV-1MN gp120 (HIV-1 strain MN). The assay is described as follows: peptide ELISA, 500 ng MIgG.
In assay [4] the target is native HIV-1IIIB gp120 (HIV-1 strain IIIB) (UniProt P04578).
The target of assay [5] is native HIV-1MN gp120 (HIV-1 strain MN) (UniProt P05877).
Assay [6] deals with native HIV-1IIIB gp120 (HIV-1 strain IIIB) (UniProt P04578). This is another data set of the same source.
The target of assay [7] is native HIV-1MN gp120 (HIV-1 strain MN) (UniProt P05877). The source holds these as a separate data set.
The target of assay [8] is gp120 of HIV-1 strain RF (HIV-1 strain RF).

Sequence of monoclonal antibody NM-01 (VH): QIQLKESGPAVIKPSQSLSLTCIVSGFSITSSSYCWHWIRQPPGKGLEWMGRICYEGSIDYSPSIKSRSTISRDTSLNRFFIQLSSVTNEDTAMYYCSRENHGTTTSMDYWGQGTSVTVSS
Sequence of monoclonal antibody NM-01 (VL): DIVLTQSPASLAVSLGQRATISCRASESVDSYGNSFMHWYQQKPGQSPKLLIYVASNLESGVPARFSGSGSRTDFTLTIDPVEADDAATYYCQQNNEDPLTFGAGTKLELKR

Regarding “mouse IgG (polyclonal serum or antibody)”, the values for the optical density at 650 nm in assay [1], in assay [2] and in assay [3] were 0.043 OD 650 nm, 0.042 OD 650 nm and 0.049 OD 650 nm, respectively.
Take monoclonal antibody NM-01: in assay [4], the ID50, syncytium formation of IIIB-infected H9 cells with C8166 cells amounted to 3 µg/mL. Moreover, the ID50, syncytium formation of MN-infected H9 cells with C8166 cells in assay [5] was 2 µg/mL. The same substance yielded an ID50, MT-2 assay (cell viability by MTT), live IIIB virus in assay [6] of 0.1 µg/mL. The ID50, MT-2 assay (cell viability by MTT), live MN virus in assay [7] was determined as 2 µg/mL. The same substance gave an ID50, syncytium formation of RF-infected cells in assay [8] of 4 µg/mL.
